Data: article PMC7949082, “Mutant BIN1-Dynamin 2 complexes dysregulate membrane remodeling in the pathogenesis of centronuclear myopathy” (The Journal of Biological Chemistry, 2020)

Target: the molecule itself
Assay: electron microscopy; purified dynamin 2 on lipid nanotubes, in the absence of GTP

B1: purified recombinant wild-type human dynamin 2 (His-tagged) (enzyme, UniProt P50570-1 1-870, looked up)
chain: MGNRGMEELIPLVNKLQDAFSSIGQSCHLDLPQIAVVGGQSAGKSSVLENFVGRDFLPRGSGIVTRRPLILQLIFSKTEHAEFLHCKSKKFTDFDEVRQEIEAETDRVTGTNKGISPVPINLRVYSPHVLNLTLIDLPGITKVPVGDQPPDIEYQIKDMILQFISRESSLILAVTPANMDLANSDALKLAKEVDPQGLRTIGVITKLDLMDEGTDARDVLENKLLPLRRGYIGVVNRSQKDIEGKKDIRAALAAERKFFLSHPAYRHMADRMGTPHLQKTLNQQLTNHIRESLPALRSKLQSQLLSLEKEVEEYKNFRPDDPTRKTKALLQMVQQFGVDFEKRIEGSGDQVDTLELSGGARINRIFHERFPFELVKMEFDEKDLRREISYAIKNIHGVRTGLFTPDLAFEAIVKKQVVKLKEPCLKCVDLVIQELINTVRQCTSKLSSYPRLREETERIVTTYIREREGRTKDQILLLIDIEQSYINTNHEDFIGFANAQQRSTQLNKKRAIPNQGEILVIRRGWLTINNISLMKGGSKEYWFVLTAESLSWYKDEEEKEKKYMLPLDNLKIRDVEKGFMSNKHVFAIFNTEQRNVYKDLRQIELACDSQEDVDSWKASFLRAGVYPEKDQAENEDGAQENTFSMDPQLERQVETIRNLVDSYVAIINKSIRDLMPKTIMHLMINNTKAFIHHELLAYLYSSADQSSLMEESADQAQRRDDMLRMYHALKEALNIIGDISTSTVSTPVPPPVDDTWLQSASSHSPTPQRRPVSSIHPPGRPPAVRGPTPGPPLIPVPVGAAASFSAPPIPSRPGPQSVFANSDLFPAPPQIPSRPVRIPPGIPPGVPSRRPPAAPSRPTIIRPAEPSLLD
notes: human dynamin 2 (NM_001005360), wild type, from the same Entry clone as the mammalian constructs; The vector is named pET15b in one paragraph and pET23b in another; no removal of the His tag is told; also called Dynamin 2 WT; DNM2WT
Q: Does B1 bind?
A: binds
